Series [1] relates to Thrb protease cleavable linker LVPRGSG, synthetic peptide fluorogenic probe.
Series [2] relates to MMP9 protease cleavable linker PLGLAG, synthetic peptide fluorogenic probe.
Series [3] has as its system GzmB protease cleavable linker IEFDSG, synthetic peptide fluorogenic probe.
For series [4], the system named is Thrb substrate peptide (candidate 1) LVSPRSG, fluorogenic peptide.

Experimental findings from patent US20250116658 are described below.

Regarding Granzyme B (GzmB) protease, the “cleavage of synthetic peptide fluorogenic probe (non-corresponding pair: not cleaved)” value (“cleavage … (non-corresponding pair: not cleaved)” for short) in series [1] and in series [2] was “specific cleavage was shown by only the corresponding proteases” in each case. In addition, the “cleavage of synthetic peptide fluorogenic probe (corresponding pair: cleaved)” value (shortened to “cleavage … (corresponding pair: cleaved)”) in series [3] is “specific cleavage was shown by only the corresponding proteases”.
As for Thrombin (Thrb) protease, in series [4], the “cleavage activity in fluorogenic assay” value was “showed higher cleavage activity than the original Thrb cleavable sequence design (LVPRGSG (SEQ ID NO: 23))”. Besides, the “cleavage … (corresponding pair: cleaved)” value in series [1] was “specific cleavage was shown by only the corresponding proteases”. For the same substance, the “cleavage … (non-corresponding pair: not cleaved)” value in series [2] and in series [3] was “specific cleavage was shown by only the corresponding proteases” each time.
As for matrix metallopeptidase 9 (MMP9), the “cleavage … (non-corresponding pair: not cleaved)” value in series [1] and in series [3] was “specific cleavage was shown by only the corresponding proteases” each time. In addition, in series [2], the “cleavage … (corresponding pair: cleaved)” value is “specific cleavage was shown by only the corresponding proteases”.
